Target: T1, MBP-IGKVDJ3-6×His (MBP fusion human antibody kappa light chain variable region protein, family 3 consensus)
T1 construct: also called MBP-VK3
Assay: SPR (legend of Fig. 12B), control MBP

T1 sequence (chain, as listed by the source): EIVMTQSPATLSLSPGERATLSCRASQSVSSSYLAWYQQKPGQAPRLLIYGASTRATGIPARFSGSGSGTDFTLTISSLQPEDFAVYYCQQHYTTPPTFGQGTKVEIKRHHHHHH

## WHWNWMRLDPMT [code 15 peptide]
  binding result: binds

Source: WO2013125221A1 (dated 2013)
